The target in test [1] is T1, Human KIR3DL3 (human, UniProt Q8N743 26-410).
T1 construct: also called Killer cell immunoglobulin-like receptor 3DL3
In words: flow cytometry; blockade of HHLA2-mIgG2a binding to KIR3DL3-transfected 300.19 cells. The procedure: (§1) The indicated concentrations of KIR3DL3 mAbs were pre-incubated with KIR3DL3 transfected 300.19 cells for 30 minutes at 4° C. […] EC50 and IC50 analysis were conducted using GraphPad Prism®.

For test [2], the target named is T1, Human KIR3DL3. In words: flow cytometry, KIR3DL3-transfected 300.19 cells. A general note: In flow cytometry, cells or beads pass a laser one at a time.
The target in the next test is T2, KIR2DL3 (UniProt P43628 22-341, limits assumed).
T2 construct: whole, on cells
T2 sequence (P43628 22-341 limits assumed): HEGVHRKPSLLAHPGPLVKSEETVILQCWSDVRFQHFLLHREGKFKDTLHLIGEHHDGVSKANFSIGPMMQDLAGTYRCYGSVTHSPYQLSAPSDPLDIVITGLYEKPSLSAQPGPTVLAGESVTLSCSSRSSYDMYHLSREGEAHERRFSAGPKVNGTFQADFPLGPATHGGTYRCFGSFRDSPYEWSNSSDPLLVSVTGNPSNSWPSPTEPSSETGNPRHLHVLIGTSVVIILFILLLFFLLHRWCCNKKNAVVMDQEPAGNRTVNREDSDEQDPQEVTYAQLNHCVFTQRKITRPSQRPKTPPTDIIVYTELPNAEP
In words: HEK293 cell microarray. The procedure: (§2) Replicate microarray slides expressing a complete KIR family cDNA panel were fixed and blocked with buffer containing PBS/0.5% BSA and incubated for 1 hour at room temperature with individual KIR3DL3 mAb hybridoma supernatants at 1:5, 1:25 and 1:250 dilutions in PBS/0.1% BSA. Cell arrays were washed with PBS and incubated for 1 hour at room temperature in PBS/0.1% BSA containing AF647-conjugated goat anti-mouse IgG (H+L) (Life Technologies, A21235). Slides were washed with PBS, dried, and imaged for ZsGreen1 and AF647 fluorescence.
(§3) In Table 4, replicate microarray slides expressing the KIR family cDNA panel (as in FIG. 1A, FIG. 2B, and FIG. 2C) were fixed and blocked with buffer containing PBS/0.5% BSA and incubated for 1 hour at room temperature with individual KIR3DL3 mAb hybridoma supernatants at 1:5, 1:25 and 1:250 dilutions in PBS/0.1% BSA. Cell arrays were washed with PBS and incubated for 1 hour at room temperature in PBS/0.1% BSA containing AF647-conjugated goat anti-mouse IgG (H+L) (Life Technologies, A21235). Slides were washed with PBS, dried, and imaged for ZsGreen1 and AF647 fluorescence.

The target in test [3] is T3, KIR3DL1 (UniProt P43629 22-444, limits assumed).
T3 construct: whole, on cells
T3 sequence (P43629 22-444 limits assumed): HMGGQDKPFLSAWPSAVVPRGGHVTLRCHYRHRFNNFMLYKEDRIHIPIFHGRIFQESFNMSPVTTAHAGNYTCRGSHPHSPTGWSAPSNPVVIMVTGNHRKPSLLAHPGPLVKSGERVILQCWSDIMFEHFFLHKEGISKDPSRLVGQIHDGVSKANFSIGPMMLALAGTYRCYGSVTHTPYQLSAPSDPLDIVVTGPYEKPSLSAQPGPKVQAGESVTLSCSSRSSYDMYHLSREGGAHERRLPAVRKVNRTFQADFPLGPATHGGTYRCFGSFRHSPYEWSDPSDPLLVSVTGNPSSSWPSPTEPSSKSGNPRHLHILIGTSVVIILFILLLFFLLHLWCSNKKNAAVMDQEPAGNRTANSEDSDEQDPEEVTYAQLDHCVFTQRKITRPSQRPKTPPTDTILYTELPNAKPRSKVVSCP
The experiment in a line: HEK293 cell microarray. The procedure:
as §2, §3

For the next test, the target named is T4, KIR2DS1 (UniProt Q14954 22-304, limits assumed).
T4 construct: whole, on cells
T4 sequence (Q14954 22-304 limits assumed): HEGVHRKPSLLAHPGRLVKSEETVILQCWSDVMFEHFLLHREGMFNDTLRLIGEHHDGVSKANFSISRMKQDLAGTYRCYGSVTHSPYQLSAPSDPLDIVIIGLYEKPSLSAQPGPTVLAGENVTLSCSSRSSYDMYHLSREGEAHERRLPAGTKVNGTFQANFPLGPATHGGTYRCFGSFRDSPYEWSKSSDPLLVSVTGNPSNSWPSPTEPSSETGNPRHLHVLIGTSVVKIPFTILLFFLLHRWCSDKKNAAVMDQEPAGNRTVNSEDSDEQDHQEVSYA
The experiment in a line: HEK293 cell microarray. The procedure: as §2, §3

Another test has as its target T5, KIR2DS2 (UniProt P43631 22-304, limits assumed).
T5 construct: whole, on cells
The experiment in a line: HEK293 cell microarray. The procedure:
as §2, §3

The target in test [4] is T6, KIR2DL2 (UniProt P43627 22-348, limits assumed).
T6 construct: whole, on cells
T6 sequence (P43627 22-348 limits assumed): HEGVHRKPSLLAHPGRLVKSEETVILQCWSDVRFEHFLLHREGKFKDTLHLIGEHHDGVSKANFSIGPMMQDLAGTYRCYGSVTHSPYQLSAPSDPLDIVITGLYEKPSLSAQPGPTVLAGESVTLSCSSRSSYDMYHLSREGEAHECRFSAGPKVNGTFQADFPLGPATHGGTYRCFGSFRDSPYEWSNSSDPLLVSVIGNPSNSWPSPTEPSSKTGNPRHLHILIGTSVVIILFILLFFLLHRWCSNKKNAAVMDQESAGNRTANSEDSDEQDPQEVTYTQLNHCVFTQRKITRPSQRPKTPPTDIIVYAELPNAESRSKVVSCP
In words: HEK293 cell microarray. The procedure: as §2, §3

Test [5] concerns the target T7, KIR2DL1 (UniProt P43626 22-348, limits assumed).
T7 construct: whole, on cells
The experiment in a line: HEK293 cell microarray. The procedure: as §2, §3

Test [6] has as its target T8, KIR2DL5B (UniProt Q8NHK3 22-375, limits assumed).
T8 construct: whole, on cells
The experiment in a line: HEK293 cell microarray. On the procedure:
as §2, §3

In a further test the target is T9, KIR2DS3 (UniProt Q14952 22-304, limits assumed).
T9 construct: whole, on cells
T9 sequence (Q14952 22-304 limits assumed): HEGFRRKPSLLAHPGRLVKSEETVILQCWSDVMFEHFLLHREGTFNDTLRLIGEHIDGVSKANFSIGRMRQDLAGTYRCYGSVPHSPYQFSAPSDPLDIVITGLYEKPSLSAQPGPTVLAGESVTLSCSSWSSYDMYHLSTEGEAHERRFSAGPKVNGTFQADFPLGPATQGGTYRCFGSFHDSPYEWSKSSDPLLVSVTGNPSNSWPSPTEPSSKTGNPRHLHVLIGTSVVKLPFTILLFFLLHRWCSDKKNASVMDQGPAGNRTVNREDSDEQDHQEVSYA
In words: HEK293 cell microarray. On the procedure: as §2, §3

For a further test, the target named is T10, KIR2DS5 (UniProt Q14953 22-304, limits assumed).
T10 construct: whole, on cells
T10 sequence (Q14953 22-304 limits assumed): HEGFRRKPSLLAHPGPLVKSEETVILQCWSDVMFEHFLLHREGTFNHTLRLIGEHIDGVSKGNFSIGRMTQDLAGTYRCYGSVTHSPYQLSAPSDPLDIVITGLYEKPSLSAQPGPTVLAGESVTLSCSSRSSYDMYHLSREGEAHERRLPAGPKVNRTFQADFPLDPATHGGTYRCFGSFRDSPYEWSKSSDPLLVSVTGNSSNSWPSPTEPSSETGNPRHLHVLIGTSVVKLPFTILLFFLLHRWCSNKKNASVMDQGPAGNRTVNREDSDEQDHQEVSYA
In words: HEK293 cell microarray. On the procedure: as §2, §3

For test [7], the target named is T11, KIR2DL4 (UniProt Q99706 22-377, limits assumed).
T11 construct: whole, on cells
T11 sequence (Q99706 22-377 limits assumed): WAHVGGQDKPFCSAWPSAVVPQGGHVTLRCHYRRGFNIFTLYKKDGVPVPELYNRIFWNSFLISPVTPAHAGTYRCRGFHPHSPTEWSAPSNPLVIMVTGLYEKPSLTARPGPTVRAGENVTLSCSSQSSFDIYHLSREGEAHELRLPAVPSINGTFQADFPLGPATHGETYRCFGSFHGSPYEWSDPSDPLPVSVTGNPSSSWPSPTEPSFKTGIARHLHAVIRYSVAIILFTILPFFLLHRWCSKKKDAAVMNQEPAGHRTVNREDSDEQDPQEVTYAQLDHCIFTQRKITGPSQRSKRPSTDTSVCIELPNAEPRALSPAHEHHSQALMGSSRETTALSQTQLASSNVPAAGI
In words: HEK293 cell microarray. On the procedure: as §2, §3

The next test has as its target T12, KIR3DS1 (UniProt Q14943 22-382, limits assumed).
T12 construct: whole, on cells
In words: HEK293 cell microarray. The procedure:
as §2, §3

Test [8] has as its target T13, KIR3DL2 (UniProt P43630 22-455, limits assumed).
T13 construct: whole, on cells
The experiment in a line: HEK293 cell microarray. On the procedure: as §2, §3

For test [9], the target named is T14, KIR2DL5A (UniProt Q8N109 22-375, limits assumed).
T14 construct: whole, on cells
T14 sequence (Q8N109 22-375 limits assumed): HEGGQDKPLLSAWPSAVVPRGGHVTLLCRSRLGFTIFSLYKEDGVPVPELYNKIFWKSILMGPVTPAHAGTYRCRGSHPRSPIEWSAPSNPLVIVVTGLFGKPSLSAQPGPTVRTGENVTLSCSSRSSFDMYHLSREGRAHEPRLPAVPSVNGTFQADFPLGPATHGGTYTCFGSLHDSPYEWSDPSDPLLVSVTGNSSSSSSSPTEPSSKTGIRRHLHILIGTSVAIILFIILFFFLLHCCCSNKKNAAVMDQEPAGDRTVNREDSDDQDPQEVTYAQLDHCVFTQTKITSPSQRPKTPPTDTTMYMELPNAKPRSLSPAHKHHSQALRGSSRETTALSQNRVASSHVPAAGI
The experiment in a line: HEK293 cell microarray. The procedure: as §2, §3

The target of test [10] is T1, Human KIR3DL3. In words: cell-based or functional assay.
Test [11] addresses T1, Human KIR3DL3. In words: flow cytometry, KIR3DL3-transfected 300.19 cells. The source holds these as a separate data set.
Test [12] has as its target T1, Human KIR3DL3. The experiment in a line: flow cytometry; blockade of HHLA2-mIgG2a binding to KIR3DL3-transfected cells. On the procedure:
as §1

The target of test [13] is T3, KIR3DL1. The experiment in a line: cell microarray on transfected HEK293 cells, HHLA2-mIgG2a probe, AF647 anti-mouse IgG detection. The procedure:
(§4) A library of ˜5500 full length cDNA clones covering more than 3,500 different plasma membrane proteins was arrayed in duplicate across 13 microarray slides (“slide sets”). Human HEK293 cells were grown above the cDNA clones and reverse-transfected. An expression vector (pIRES-hEGFR-IRES-ZsGreen1) was spotted in quadruplicate on every slide and was used to ensure that a minimal threshold of transfection efficiency had been achieved or exceeded on every slide.
(§5) Two replicate slides were screened for each of the 13 slide sets. Fluorescent images were analyzed and quantitated (for transfection efficiency) using ImageQuant software (GE). A protein ‘hit’ was defined as duplicate spots showing a raised signal compared to background levels. This was achieved by visual inspection using the images gridded on the ImageQuant software.

The target of a further test is T15, EGFR (human, UniProt P00533 25-1210).
T15 construct: whole, on cells; also called hEGFR
Described as above. The procedure:
as §4, §5

The target in test [14] is T6, KIR2DL2. The description is as above. On the procedure: as §4, §5
The target in test [15] is T7, KIR2DL1. The description is as above. The procedure:
as §4, §5

Test [16] deals with T8, KIR2DL5B. The test is described as above. The procedure: as §4, §5
The target of test [17] is T11, KIR2DL4. The test is described as above. On the procedure: as §4, §5
Test [18] addresses T13, KIR3DL2. Described as above. On the procedure:
as §4, §5

Test [19] deals with T14, KIR2DL5A. Described as above. On the procedure: as §4, §5
For a further test, the target named is T16, Human HHLA2 (human, UniProt Q9UM44 23-414).
T16 construct: also called B7-H7; B7-H5
T16 sequence: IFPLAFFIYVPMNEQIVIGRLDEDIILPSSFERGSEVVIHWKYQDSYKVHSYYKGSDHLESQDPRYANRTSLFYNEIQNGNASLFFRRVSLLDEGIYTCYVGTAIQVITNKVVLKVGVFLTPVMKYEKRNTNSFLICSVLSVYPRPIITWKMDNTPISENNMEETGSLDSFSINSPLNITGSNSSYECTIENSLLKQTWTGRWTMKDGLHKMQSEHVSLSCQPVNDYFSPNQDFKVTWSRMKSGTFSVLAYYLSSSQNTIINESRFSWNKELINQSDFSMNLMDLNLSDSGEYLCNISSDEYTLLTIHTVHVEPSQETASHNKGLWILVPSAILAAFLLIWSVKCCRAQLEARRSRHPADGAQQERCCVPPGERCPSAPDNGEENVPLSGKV
Described as above. On the procedure:
as §4, §5

The target of test [20] is T1, Human KIR3DL3. In words: flow cytometry; blockade of HHLA2-mIgG2a binding to KIR3DL3-transfected 300.19 cells; Table 3; blockade of HHLA2-mouse IgG2a binding to KIR3DL3 transfected 300.19 cells, 4° C. The procedure: as §1

Broadly, the IC50 is the concentration that gives 50% inhibition. As a reminder, the EC50 is the midpoint of the concentration-response curve. Usually Kd stands for the equilibrium constant for the complex coming apart. Higher therefore signals a looser complex.

T1 sequence (Q8N743 26-410 H321N limits assumed): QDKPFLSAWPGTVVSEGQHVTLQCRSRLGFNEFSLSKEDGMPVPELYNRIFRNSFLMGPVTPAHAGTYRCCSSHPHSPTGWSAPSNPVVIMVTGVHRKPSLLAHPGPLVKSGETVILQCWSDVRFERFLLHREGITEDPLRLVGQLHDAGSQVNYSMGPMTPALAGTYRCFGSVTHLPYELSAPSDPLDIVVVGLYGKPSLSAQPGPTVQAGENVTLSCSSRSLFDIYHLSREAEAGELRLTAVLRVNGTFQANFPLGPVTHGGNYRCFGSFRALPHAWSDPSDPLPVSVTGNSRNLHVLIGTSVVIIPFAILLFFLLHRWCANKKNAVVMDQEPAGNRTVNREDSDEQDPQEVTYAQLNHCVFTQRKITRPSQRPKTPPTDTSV
T7 sequence (P43626 22-348 limits assumed): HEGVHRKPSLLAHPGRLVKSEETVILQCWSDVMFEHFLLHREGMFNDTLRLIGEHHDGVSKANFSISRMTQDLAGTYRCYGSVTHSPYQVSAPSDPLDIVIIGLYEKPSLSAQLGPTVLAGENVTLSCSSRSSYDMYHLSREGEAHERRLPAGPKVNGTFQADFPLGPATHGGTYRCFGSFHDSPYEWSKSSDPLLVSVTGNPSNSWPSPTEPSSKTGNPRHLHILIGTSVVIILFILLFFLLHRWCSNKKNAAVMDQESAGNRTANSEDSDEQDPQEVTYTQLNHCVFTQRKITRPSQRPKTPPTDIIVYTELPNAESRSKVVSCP
T13 sequence (P43630 22-455 limits assumed): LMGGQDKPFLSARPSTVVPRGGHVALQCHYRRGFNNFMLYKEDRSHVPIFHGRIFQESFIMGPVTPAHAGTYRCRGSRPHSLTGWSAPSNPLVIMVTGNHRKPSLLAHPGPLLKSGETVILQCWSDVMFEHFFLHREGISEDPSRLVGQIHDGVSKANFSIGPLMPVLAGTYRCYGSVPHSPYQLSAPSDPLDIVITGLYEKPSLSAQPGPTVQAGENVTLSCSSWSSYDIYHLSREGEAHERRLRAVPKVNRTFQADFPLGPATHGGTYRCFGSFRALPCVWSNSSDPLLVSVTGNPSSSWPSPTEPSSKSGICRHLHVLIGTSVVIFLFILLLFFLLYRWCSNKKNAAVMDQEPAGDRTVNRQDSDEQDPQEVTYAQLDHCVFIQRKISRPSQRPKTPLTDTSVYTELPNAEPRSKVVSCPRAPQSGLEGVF
T8 sequence (Q8NHK3 22-375 limits assumed): as the sequence (Q8N109 22-375 limits assumed) above, with N152D, G174S counted along it
T12 sequence (Q14943 22-382 limits assumed): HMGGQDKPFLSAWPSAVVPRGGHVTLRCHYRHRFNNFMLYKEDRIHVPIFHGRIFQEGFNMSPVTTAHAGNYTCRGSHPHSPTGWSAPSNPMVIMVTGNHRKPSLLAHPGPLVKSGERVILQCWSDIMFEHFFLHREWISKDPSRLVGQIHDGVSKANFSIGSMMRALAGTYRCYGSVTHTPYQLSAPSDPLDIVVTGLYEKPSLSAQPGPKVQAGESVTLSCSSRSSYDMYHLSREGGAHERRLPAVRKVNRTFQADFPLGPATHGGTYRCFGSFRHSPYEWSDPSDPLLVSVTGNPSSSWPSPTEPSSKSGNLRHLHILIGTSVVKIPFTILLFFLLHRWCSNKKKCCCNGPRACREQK
T5 sequence (P43631 22-304 limits assumed): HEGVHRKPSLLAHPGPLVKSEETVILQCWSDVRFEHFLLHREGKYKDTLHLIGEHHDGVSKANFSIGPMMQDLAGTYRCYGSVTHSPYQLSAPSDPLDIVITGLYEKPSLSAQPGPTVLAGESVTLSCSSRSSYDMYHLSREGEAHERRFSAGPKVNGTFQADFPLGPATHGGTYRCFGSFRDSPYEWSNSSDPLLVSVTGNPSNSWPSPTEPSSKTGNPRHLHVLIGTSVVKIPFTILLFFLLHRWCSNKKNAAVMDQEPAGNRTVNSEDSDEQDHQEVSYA

B1: KIR3DL3 mAb 574.2.8F7.1.7.4 (antibody, IgG1, V domains shown)
VH: DVKLVESGGGLVKPGGSLKLSCAASGFTFSSYCMSWVRQTPEKRLEWVATISSGGNYIYYPDSVKGRFTISRDIAKNTLYLQMSSLKSEDTAMYYCTRGGYDERYFDYWGQGTILTVSS
VL: DIQMTQSPASLSASVGETVTITCRASENIYSYLAWYQQKQGKSPQLLVYNAKTLTEGMPSRFSGSGSGTQFSLRINSLQPEDFGSYYCQHHHGTPRTFGGGTKLEIK
notes: Mouse hybridoma antibody, IgG1; only variable domains given; also called AVS-3700
With B1, the figures for the half-inhibitory concentration (IC50) with Human KIR3DL3 [1] and in the test with Human KIR3DL3 [12] were 27.5 µg/mL and > 10 µg/mL, respectively. The EC50 with Human KIR3DL3 [2] worked out at 1 µg/mL. Moreover, the binding result with KIR2DL3 was “no binding (tested: supernatant 1:5, 1:25, 1:250)”; in the test with KIR3DL1 [3], “no binding (tested: supernatant 1:5, 1:25, 1:250)”; in the test with KIR2DS1, “no binding (tested: supernatant 1:5, 1:25, 1:250)”; in the test with KIR2DS2, “no binding (tested: supernatant 1:5, 1:25, 1:250)”; in the test with KIR2DL2 [4], “no binding (tested: supernatant 1:5, 1:25, 1:250)”; with KIR2DL1 [5], “no binding (tested: supernatant 1:5, 1:25, 1:250)”. Besides, the binding result in the test with KIR2DL5B [6] is recorded as “no binding (tested: supernatant 1:5, 1:25, 1:250)”; with KIR2DS3 it was “no binding (tested: supernatant 1:5, 1:25, 1:250)”; with KIR2DS5, “no binding (tested: supernatant 1:5, 1:25, 1:250)”; with KIR2DL4 [7], “no binding (tested: supernatant 1:5, 1:25, 1:250)”; with KIR3DS1, “no binding (tested: supernatant 1:5, 1:25, 1:250)”; with KIR3DL2 [8] it was “no binding (tested: supernatant 1:5, 1:25, 1:250)”. Besides, in the test with KIR2DL5A [9], the binding result was “no binding (tested: supernatant 1:5, 1:25, 1:250)”. The “Jurkat IL-2 Luciferase, Fold Activation” value in the test with Human KIR3DL3 [10] is 1.2 fold. This molecule also returned a dissociation constant (Kd) with Human KIR3DL3 [11] of 1 µg/mL.

B2: Human HHLA2-mIgG2a fusion protein (Fc fusion)
chain: IFPLAFFIYVPMNEQIVIGRLDEDIILPSSFERGSEVVIHWKYQDSYKVHSYYKGSDHLESQDPRYANRTSLFYNEIQNGNASLFFRRVSLLDEGIYTCYVGTAIQVITNKVVLKVGVFLTPVMKYEKRNTNSFLICSVLSVYPRPIITWKMDNTPISENNMEETGSLDSFSINSPLNITGSNSSYECTIENSLLKQTWTGRWTMKDGLHKMQSEHVSLSCQPVNDYFSPNQDFKVTWSRMKSGTFSVLAYYLSSSQNTIINESRFSWNKELINQSDFSMNLMDLNLSDSGEYLCNISSDEYTLLTIHTVHVEPSQETASHN
notes: also called HHLA2-Ig; HHLA2-mouse IgG2a; not shown: mutated at IgG2a L235E, E318A, K320A, K322A
B2: the binding result with KIR3DL1 [13], in the test with EGFR, with KIR2DL2 [14], with KIR2DL1 [15], with KIR2DL5B [16] and with KIR2DL4 [17] was “no binding (tested: 20 ug/ml)” each time. The binding result in the test with KIR3DL2 [18], in the test with KIR2DL5A [19] and with Human HHLA2 was “no binding (tested: 20 ug/ml)” in each case.

B3: KIR3DL3 mAb 574.2.1G7.9.9 (antibody, IgG2b, V domains shown)
VH: ELKLEESGGGLVQPGGSMKLSCVASGFTFSNYWMNWVRQSPEKGLEWIAEIRLKSNNYATHYAESVKGRFTISRDDSKSSVYLQMNNLRAEDTGIFYCTPFYGSSFPYWGQGTLVTVSA
VL: DIQMTQTTSSLSASLGDRVTISCRASQDISNYLNWYQQKPDGTVKLLIYYTSILQLGVPPRFSGSGSGTDYSLTISNLEQEDIATYFCQQGNTLPFTFGAGTKVELK
notes: Mouse hybridoma antibody, IgG2b; only variable domains given; also called AVS-3701
Take B3: the 50% inhibitory concentration (IC50) in the test with Human KIR3DL3 [20] is 0.06 µg/mL; with Human KIR3DL3 [12], 0.61 µg/mL. In the test with Human KIR3DL3 [2], the EC50 was 0.13 µg/mL. The binding result in the test with KIR2DL3 is on record as “no binding (tested: supernatant 1:5, 1:25, 1:250)”; in the test with KIR3DL1 [3] it was “no binding (tested: supernatant 1:5, 1:25, 1:250)”; with KIR2DS1, “no binding (tested: supernatant 1:5, 1:25, 1:250)”; in the test with KIR2DS2 it was “no binding (tested: supernatant 1:5, 1:25, 1:250)”; with KIR2DL2 [4], “no binding (tested: supernatant 1:5, 1:25, 1:250)”; with KIR2DL1 [5], “no binding (tested: supernatant 1:5, 1:25, 1:250)”. Further, the binding result with KIR2DL5B [6] is “no binding (tested: supernatant 1:5, 1:25, 1:250)”; in the test with KIR2DS3 it was “no binding (tested: supernatant 1:5, 1:25, 1:250)”; with KIR2DS5 it was “no binding (tested: supernatant 1:5, 1:25, 1:250)”; in the test with KIR2DL4 [7], “no binding (tested: supernatant 1:5, 1:25, 1:250)”; in the test with KIR3DS1, “no binding (tested: supernatant 1:5, 1:25, 1:250)”; in the test with KIR3DL2 [8], “no binding (tested: supernatant 1:5, 1:25, 1:250)”. In addition, the binding result with KIR2DL5A [9] was “no binding (tested: supernatant 1:5, 1:25, 1:250)”. Also, the “Jurkat IL-2 Luciferase Activation, EC50” value in the test with Human KIR3DL3 [10] was determined as 0.37 µg/mL. In the test with Human KIR3DL3 [10], the “Jurkat IL-2 Luciferase, Fold Activation” value was 9.9 fold. The molecule further displayed a Kd with Human KIR3DL3 [11] of 0.13 µg/mL.

Values taken from US20250388702A1 (Dana-Farber, published 2025).
